The values below come from patent US7452965.

Bridge positions count the residues as written; N and C are the ends. Ends that are not written are not given here.

The target of assay [1] is HT29 protein (unidentified protease-sensitive cell surface protein on HT29 colon carcinoma cells that the RPM peptide binds). In words: competition with RPM phage on HT29 cells, real time PCR.
Assay [2] has the same target. The experiment in a line: competition of non-specific peptide with RPM phage on HT29 cells, real time PCR; 100% means no competition. For orientation: Real-time PCR tracks product formation cycle by cycle.
Assay [3] has the same target. In words: competition with RPM displaying phage on HT29 cells, real time PCR.
Assay [4] shares this target. The experiment in a line: competition of synthetic peptide with RPM phage on HT29 cells, real time PCR; percent of phage bound without competitor.

On to CPIRPMEDC [RPM middle peptide … (SEQ ID NO: 137)], for which the fold less potent than RPM in competition in assay [1] was > 100 fold.
Take CKHLGPQLC (disulfide 1-9 (inferred)) [non-specific peptide … (SEQ ID NO: 135), synthetic, oxidized to form a disulfide bond]: in assay [2], the percent of RPM phage binding remaining amounted to 100%.
For the molecule CPIEDRPAC [RPA peptide (RPM peptide with the methionine mutated to alanine)], in assay [3], the EC50 (in general, the midpoint of the concentration-response curve) amounted to 545 µM and the fold shift of the EC50 of competition against the RPM peptide came out at 100 fold.
Taken in the same sequence, the figures for CPIEDAPMC [APM peptide (RPM peptide with the arginine mutated to alanine)] were 690 µM and 100 fold.
CPIEDRPMC (disulfide 1-9 (inferred)) [RPM peptide … (SEQ ID NO: 134), synthetic, oxidized to form a disulfide bond] came in with an EC50 in assay [3] of 5 µM. Moreover, in assay [4], the percent of RPM phage binding remaining was < 4%.
